Experimental data reported in publication PMC10786891, “Massively parallel profiling of RNA-targeting CRISPR-Cas13d”.
Changes are numbered by the printed parent chain. In names and notes the source's numbering stands.

B1: target 1 C4G,U10C (mixed)
RNA 1: CACCCGUGCAAAAAUGCAGGGGUCUAAAACUGAGCGGAUAACCUCUCUAUGG
RNA 2: GGGAAUGGAUCCACAUCUACGAAUUCGUACCAUAGAGAGGUCAUCCGGUCACCGAGAUCGGAAGAGCACACGU
B2: target 1 U8G,A14C (mixed)
RNA 1: B1 RNA 1
RNA 2: B1 RNA 2 with A38C, C42U, U44G, G48C
B3: target 1 complement block 1-10 (mixed)
RNA 1: B1 RNA 1
RNA 2: B1 RNA 2 with C42A, A43U, U44A, C45G, C46G, G47C, U49A, C50G, A51U
B4: target 1 A1U,G5A (mixed)
RNA 1: B1 RNA 1
RNA 2: B1 RNA 2 with C42U, G47A, G48C, A51U
B5: target 1 C7A,A20G (mixed)
RNA 1: B1 RNA 1
RNA 2: B1 RNA 2 with A32G, C42U, C45A, G48C
B6: target 1 del16 (mixed)
RNA 1: B1 RNA 1
RNA 2: GGGAAUGGAUCCACAUCUACGAAUUCGUACCAUAGGAGGUUAUCCGCUCACCGAGAUCGGAAGAGCACACGU
B7: target 1 insA 3' of 6,insG 3' of 3 (mixed)
RNA 1: B1 RNA 1
RNA 2: GGGAAUGGAUCCACAUCUACGAAUUCGUACCAUAGAGAGGUUAUCCAGCUGCACCGAGAUCGGAAGAGCACACGU
B8: target 1 insC 3' of 13,insU 3' of 6 (mixed)
RNA 1: B1 RNA 1
RNA 2: GGGAAUGGAUCCACAUCUACGAAUUCGUACCAUAGAGAGCGUUAUCCUGCUCACCGAGAUCGGAAGAGCACACGU
B9: target 1 G15U,A16C (mixed)
RNA 1: B1 RNA 1
RNA 2: B1 RNA 2 with A36C, G37U, C42U, G48C
B10: target 1 U8A,A20U (mixed)
RNA 1: B1 RNA 1
RNA 2: B1 RNA 2 with A32U, C42U, U44A, G48C
B11: target 1 complement block 2-10 (mixed)
RNA 1: B1 RNA 1
RNA 2: B1 RNA 2 with C42A, A43U, U44A, C45G, C46G, G47C, U49A, C50G
B12: target 1 G15U,G17U (mixed)
RNA 1: B1 RNA 1
RNA 2: B1 RNA 2 with G35U, G37U, C42U, G48C
B13: target 1 G5U,C22A (mixed)
RNA 1: B1 RNA 1
RNA 2: B1 RNA 2 with C30A, C42U, G47U, G48C
B14: target 1 insC 3' of 14,insA 3' of 4 (mixed)
RNA 1: B1 RNA 1
RNA 2: B8 RNA 2 with G39C, C40G, U48G, G49C, C50A
B15: target 1 insG 3' of 6,insG 3' of 2 (mixed)
RNA 1: B1 RNA 1
RNA 2: B7 RNA 2 with A47G, G51C, C52G
B16: target 1 C6A,U10A (mixed)
RNA 1: B1 RNA 1
RNA 2: B1 RNA 2 with C42A, C46A, G48C
B17: target 1 U19C,A20G (mixed)
RNA 1: B1 RNA 1
RNA 2: B1 RNA 2 with A32G, U33C, C42U, G48C
B18: target 1 insG 3' of 18,insA 3' of 6 (mixed)
RNA 1: B1 RNA 1
RNA 2: B8 RNA 2 with A36G, G37A, A38G, G39A, C40G, U48A
B19: target 1 G13A,A18U (mixed)
RNA 1: B1 RNA 1
RNA 2: B1 RNA 2 with A34U, G39A, C42U, G48C
B20: target 1 A1C,G5A (mixed)
RNA 1: B1 RNA 1
RNA 2: B1 RNA 2 with C42U, G47A, G48C, A51C
B21: target 1 insG 3' of 9,insU 3' of 7 (mixed)
RNA 1: B1 RNA 1
RNA 2: B8 RNA 2 with C40G, G41U, U43A, A44G, C47U, U48C
B22: target 1 insU 3' of 21,insA 3' of 4 (mixed)
RNA 1: B1 RNA 1
RNA 2: GGGAAUGGAUCCACAUCUACGAAUUCGUACCUAUAGAGAGGUUAUCCGCAUCACCGAGAUCGGAAGAGCACACGU
B23: target 1 G13A,A16U (mixed)
RNA 1: B1 RNA 1
RNA 2: B1 RNA 2 with A36U, G39A, C42U, G48C
B24: target 1 G17U,A20G (mixed)
RNA 1: B1 RNA 1
RNA 2: B1 RNA 2 with A32G, G35U, C42U, G48C
B25: target 1 C6U,C21U (mixed)
RNA 1: B1 RNA 1
RNA 2: B1 RNA 2 with C31U, C42U, C46U, G48C
B26: target 1 U19A,A20G (mixed)
RNA 1: B1 RNA 1
RNA 2: B1 RNA 2 with A32G, U33A, C42U, G48C
B27: target 1 insG 3' of 11,insG 3' of 4 (mixed)
RNA 1: B1 RNA 1
RNA 2: B8 RNA 2 with C40G, G41U, U42G, U48G, G49C, C50G
B28: target 1 C7U,G13A (mixed)
RNA 1: B1 RNA 1
RNA 2: B1 RNA 2 with G39A, C42U, C45U, G48C
B29: target 1 insG 3' of 22,insA 3' of 17 (mixed)
RNA 1: B1 RNA 1
RNA 2: GGGAAUGGAUCCACAUCUACGAAUUCGUACGCAUAGAAGAGGUUAUCCGCUCACCGAGAUCGGAAGAGCACACGU
B30: target 1 G5A (mixed)
RNA 1: B1 RNA 1
RNA 2: B1 RNA 2 with C42U, G47A, G48C
B31: target 1 insC 3' of 15,insU 3' of 7 (mixed)
RNA 1: B1 RNA 1
RNA 2: B8 RNA 2 with A38C, G39A, C40G, C47U, U48C
B32: target 1 U8G,G15A (mixed)
RNA 1: B1 RNA 1
RNA 2: B1 RNA 2 with G37A, C42U, U44G, G48C
B33: target 1 insC 3' of 1 (mixed)
RNA 1: B1 RNA 1
RNA 2: GGGAAUGGAUCCACAUCUACGAAUUCGUACCAUAGAGAGGUUAUCCGCUCACCCGAGAUCGGAAGAGCACACGU
B34: target 1 U10A,G15A (mixed)
RNA 1: B1 RNA 1
RNA 2: B1 RNA 2 with G37A, C42A, G48C
B35: target 1 insG 3' of 9,insC 3' of 8 (mixed)
RNA 1: B1 RNA 1
RNA 2: B8 RNA 2 with C40G, G41U, U43A, A44G, U48C

Target: T1, EsCas13d, nuclease-dead (Eubacterium siraeum, UniProt B0MS50, R295A;H300A;R849A;H854A)
T1 sequence: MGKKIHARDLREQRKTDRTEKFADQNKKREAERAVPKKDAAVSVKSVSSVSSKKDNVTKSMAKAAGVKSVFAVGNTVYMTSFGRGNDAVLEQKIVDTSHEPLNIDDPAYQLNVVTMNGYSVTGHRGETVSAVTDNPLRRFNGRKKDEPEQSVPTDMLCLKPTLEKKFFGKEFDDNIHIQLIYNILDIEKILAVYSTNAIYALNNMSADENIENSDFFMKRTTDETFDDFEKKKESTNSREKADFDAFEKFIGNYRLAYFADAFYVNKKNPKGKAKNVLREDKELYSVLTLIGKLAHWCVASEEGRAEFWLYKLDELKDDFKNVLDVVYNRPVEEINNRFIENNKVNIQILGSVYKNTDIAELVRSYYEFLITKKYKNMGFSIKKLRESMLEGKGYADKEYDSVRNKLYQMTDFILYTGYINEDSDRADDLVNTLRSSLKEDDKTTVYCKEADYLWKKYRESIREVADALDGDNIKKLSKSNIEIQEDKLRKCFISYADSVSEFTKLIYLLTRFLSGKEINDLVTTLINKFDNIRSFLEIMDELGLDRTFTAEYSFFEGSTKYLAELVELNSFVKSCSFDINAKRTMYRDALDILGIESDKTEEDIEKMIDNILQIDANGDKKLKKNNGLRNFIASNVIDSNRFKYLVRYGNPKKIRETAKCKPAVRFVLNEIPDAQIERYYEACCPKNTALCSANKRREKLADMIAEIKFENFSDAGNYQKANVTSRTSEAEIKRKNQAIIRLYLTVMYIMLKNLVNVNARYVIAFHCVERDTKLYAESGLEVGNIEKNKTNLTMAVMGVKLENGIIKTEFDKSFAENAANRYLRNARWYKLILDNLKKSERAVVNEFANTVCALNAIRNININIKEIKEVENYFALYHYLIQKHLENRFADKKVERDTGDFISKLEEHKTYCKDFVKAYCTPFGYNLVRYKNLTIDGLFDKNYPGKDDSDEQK
Assay: crRNA (strand 1, pre-loaded); Mg2+; 40 mM Tris-HCl pH 7.5, 150 mM NaCl, 6 mM MgCl2, 1 mM DTT, 0.1% Tween-20, 0.2 mg/ml BSA; 25 C; 10 min per concentration, then washed
Settings: tags: His6-TwinStrep-SUMO cleaved; N-terminal SNAP kept (SNAP-Surface 488); label: 3' end held by stalled T7 RNA polymerase

| Binder | Kd |
| --- | --- |
| B1 | 5.15 ± 0.3 nM |
| B2 | ~80 nM |
| B3 | 16.6 ± 0.6 nM |
| B4 | 34 ± 6 nM |
| B5 | 45 ± 13 nM |
| B6 | 46 ± 4 nM |
| B7 | 13.1 ± 0.5 nM |
| B8 | 11 ± 0.9 nM |
| B9 | 83 ± 16 nM |
| B10 | 80 ± 21 nM |
| B11 | 13.3 ± 0.6 nM |
| B12 | 86 ± 21 nM |
| B13 | 54 ± 14 nM |
| B14 | 24.3 ± 1.9 nM |
| B15 | 10.4 ± 1.1 nM |
| B16 | 7.7 ± 0.4 nM |
| B17 | 55 ± 22 nM |
| B18 | 73 ± 25 nM |

| Binder | Kd |
| --- | --- |
| B19 | 22.5 ± 2 nM |
| B20 | 26 ± 9 nM |
| B21 | 16.4 ± 0.8 nM |
| B22 | 15.6 ± 1.3 nM |
| B23 | 43 ± 6 nM |
| B24 | 40 ± 6 nM |
| B25 | 6.2 ± 0.4 nM |
| B26 | 56 ± 7 nM |
| B27 | 54 ± 13 nM |
| B28 | 6.2 ± 0.7 nM |
| B29 | 71 ± 24 nM |
| B30 | 51 ± 8 nM |
| B31 | 17.1 ± 0.9 nM |
| B32 | 56 ± 6 nM |
| B33 | 9.1 ± 0.6 nM |
| B34 | 31 ± 3 nM |
| B35 | 29.5 ± 2.9 nM |
